Measurements from patent US20240279325A1 (Chugai, published 2024).

How the values were obtained:
[1] = molecular target: T1, human FcγRIIb extracellular domain with C-terminal His tag (human, UniProt P31994 43-217); test: ratio of SPR KDs (FcγRIIaR over FcγRIIb)
T1 sequence: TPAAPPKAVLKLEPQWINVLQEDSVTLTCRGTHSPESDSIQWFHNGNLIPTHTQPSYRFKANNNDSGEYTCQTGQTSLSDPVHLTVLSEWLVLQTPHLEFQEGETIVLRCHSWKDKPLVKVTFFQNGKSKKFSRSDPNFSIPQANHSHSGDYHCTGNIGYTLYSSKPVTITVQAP

[2] = molecular target: T2, human FcγRIIa type R (allotype R131) extracellular domain with C-terminal His tag (human, UniProt P12318 34-217); test: ratio of SPR KDs, reference IL6R-B3/IL6R-L
T2 construct: also called FcγRIIaR
T2 chain: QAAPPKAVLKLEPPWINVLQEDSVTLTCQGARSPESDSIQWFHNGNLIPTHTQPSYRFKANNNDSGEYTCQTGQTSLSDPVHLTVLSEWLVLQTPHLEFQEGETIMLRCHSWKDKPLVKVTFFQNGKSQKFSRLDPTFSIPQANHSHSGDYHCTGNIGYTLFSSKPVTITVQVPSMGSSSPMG

[3] = molecular target: T1, human FcγRIIb extracellular domain with …; test: ratio of SPR KDs, reference IL6R-B3/IL6R-L
[4] = molecular target: human FcγRIa extracellular domain with C-terminal His tag (human, UniProt P12314 16-292); test: SPR (Biacore), captured antibody, FcγR analyte
human FcγRIa extracellular domain with C-terminal His tag, sequence (P12314 16-292): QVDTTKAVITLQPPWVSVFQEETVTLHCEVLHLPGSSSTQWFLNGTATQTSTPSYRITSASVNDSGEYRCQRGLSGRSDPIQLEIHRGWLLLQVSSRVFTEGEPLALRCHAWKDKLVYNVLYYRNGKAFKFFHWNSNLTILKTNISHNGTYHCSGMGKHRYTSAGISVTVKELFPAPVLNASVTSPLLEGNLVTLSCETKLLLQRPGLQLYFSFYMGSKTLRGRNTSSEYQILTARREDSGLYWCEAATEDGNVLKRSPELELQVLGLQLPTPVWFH

[5] = molecular target: T2, human FcγRIIa type R (allotype R131) …; test: SPR (Biacore), captured antibody, FcγR analyte
[6] = molecular target: T3, human FcγRIIa type H (allotype H131) extracellular domain with C-terminal His tag (human, UniProt P12318 34-217); test: SPR (Biacore), captured antibody, FcγR analyte
T3 construct: also called FcγRIIaH
T3 sequence: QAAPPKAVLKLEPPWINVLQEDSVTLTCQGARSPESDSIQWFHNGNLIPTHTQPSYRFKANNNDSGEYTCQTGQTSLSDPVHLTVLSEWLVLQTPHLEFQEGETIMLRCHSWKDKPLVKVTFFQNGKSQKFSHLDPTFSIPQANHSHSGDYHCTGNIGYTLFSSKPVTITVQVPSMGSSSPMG

[7] = molecular target: T1, human FcγRIIb extracellular domain with …; test: SPR (Biacore), captured antibody, FcγR analyte
[8] = molecular target: T4, human FcγRIIIa type V (allotype V158) extracellular domain with C-terminal His tag (human, UniProt P08637 17-208); test: SPR (Biacore), captured antibody, FcγR analyte
T4 construct: also called FcγRIIIaV; FcγRIIIa V type
T4 sequence (P08637 other isoform, or with tags, fused parts or gaps): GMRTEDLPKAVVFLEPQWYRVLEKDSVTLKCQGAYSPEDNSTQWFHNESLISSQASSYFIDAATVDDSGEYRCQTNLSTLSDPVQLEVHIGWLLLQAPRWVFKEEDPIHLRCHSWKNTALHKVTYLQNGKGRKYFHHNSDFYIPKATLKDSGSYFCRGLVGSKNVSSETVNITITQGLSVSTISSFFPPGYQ

[9] = molecular target: T5, FcγRIIb extracellular region (human, UniProt P31994 43-217); test: SPR (Biacore), ratio of KD values
T5 construct: extracellular domain; for crystals expressed with kifunensine and trimmed with Endo F1; also called human FcγRIIb
T5 sequence (looked up): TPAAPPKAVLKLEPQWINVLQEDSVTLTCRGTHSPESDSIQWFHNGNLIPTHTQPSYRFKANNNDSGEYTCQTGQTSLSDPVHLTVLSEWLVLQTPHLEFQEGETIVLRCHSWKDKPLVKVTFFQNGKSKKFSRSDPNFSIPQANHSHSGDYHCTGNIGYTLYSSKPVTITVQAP

[10] = molecular target: T6, FcγRIIaR extracellular region (human, UniProt P12318 34-217); test: SPR (Biacore), ratio of KD values
T6 construct: extracellular domain; also called FcγRIIa type R; FcγRIIa allotype R131
T6 sequence (looked up): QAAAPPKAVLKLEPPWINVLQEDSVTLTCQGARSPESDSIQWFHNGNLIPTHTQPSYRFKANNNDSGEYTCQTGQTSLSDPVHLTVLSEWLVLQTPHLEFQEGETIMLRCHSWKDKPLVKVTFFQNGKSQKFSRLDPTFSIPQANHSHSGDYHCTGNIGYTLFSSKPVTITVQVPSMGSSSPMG

[11] = molecular target: T7, FcγRIa extracellular domain with C-terminal His tag (human, UniProt P12314 16-292); test: SPR (Biacore), antibody captured, FcγR as analyte
T7 construct: extracellular domain
T7 sequence (P12314 16-292): as the sequence (P12314 16-292) above

[12] = molecular target: T8, FcγRIIa type R (allotype R131) extracellular domain with C-terminal His tag (human, UniProt P12318 34-217); test: SPR (Biacore), antibody captured, FcγR as analyte
T8 construct: extracellular domain; also called FcγRIIaR; FcγRIIa R type
T8 sequence (looked up): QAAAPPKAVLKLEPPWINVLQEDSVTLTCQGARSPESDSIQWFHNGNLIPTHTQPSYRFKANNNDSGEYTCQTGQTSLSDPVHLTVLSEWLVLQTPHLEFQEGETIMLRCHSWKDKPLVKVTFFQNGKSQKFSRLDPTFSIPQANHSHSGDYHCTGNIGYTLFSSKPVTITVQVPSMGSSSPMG

[13] = molecular target: T9, FcγRIIb extracellular domain with C-terminal His tag (human, UniProt P31994 43-217); test: SPR (Biacore), antibody captured, FcγR as analyte
T9 construct: extracellular domain
T9 sequence (looked up): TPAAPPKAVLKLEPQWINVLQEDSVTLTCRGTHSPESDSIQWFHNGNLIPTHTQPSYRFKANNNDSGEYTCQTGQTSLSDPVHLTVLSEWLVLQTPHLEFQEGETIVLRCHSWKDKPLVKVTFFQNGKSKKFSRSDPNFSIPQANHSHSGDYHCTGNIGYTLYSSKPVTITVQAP

[14] = molecular target: T10, FcγRIIIa type V (allotype V158) extracellular domain with C-terminal His tag (human, UniProt P08637 17-208); test: SPR (Biacore), antibody captured, FcγR as analyte
T10 construct: extracellular domain; also called FcγRIIIaV; FcγRIIIa V type
T10 sequence (P08637 17-208 F176V): as the sequence (P08637 other isoform, or with tags, fused parts or gaps) above, with S179A counted along it

[15] = molecular target: T11, human FcRn (human, UniProt P55899 24-290; P61769 21-119, limits assumed); test: SPR Biacore, pH 7.0
T11 construct: also called human neonatal Fc receptor
Description: (§1) The binding between the antibody and human FcRn under a neutral condition (pH 7.0) was analyzed with a BIACORE™ system.
T11 sequence (P55899 24-290 limits assumed, chain 1 of 2): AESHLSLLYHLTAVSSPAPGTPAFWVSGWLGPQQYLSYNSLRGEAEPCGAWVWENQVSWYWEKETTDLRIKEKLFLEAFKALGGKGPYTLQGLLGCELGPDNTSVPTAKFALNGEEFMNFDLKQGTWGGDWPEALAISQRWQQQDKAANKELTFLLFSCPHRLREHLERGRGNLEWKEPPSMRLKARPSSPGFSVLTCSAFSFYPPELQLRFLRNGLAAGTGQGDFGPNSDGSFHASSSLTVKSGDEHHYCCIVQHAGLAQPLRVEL
T11 sequence (P61769 21-119 limits assumed, chain 2 of 2): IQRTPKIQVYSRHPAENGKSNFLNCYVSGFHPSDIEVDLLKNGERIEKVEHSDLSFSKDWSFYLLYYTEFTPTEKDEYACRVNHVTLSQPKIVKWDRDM

[16] = molecular target: T12, human FcRn (human, UniProt P55899 24-290; P61769 21-119, limits assumed); test: SPR (Biacore), pH 7.0
T12 construct: also called hFcRn
Description: as §1
T12 sequence (P55899 24-290 limits assumed, chain 1 of 2): as the sequence (P55899 24-290 limits assumed, chain 1 of 2) above
T12 sequence (P61769 21-119 limits assumed, chain 2 of 2): as the sequence (P61769 21-119 limits assumed, chain 2 of 2) above

[17] = molecular target: T13, mouse FcγRI (mouse, UniProt P26151 25-297); test: SPR (Biacore)
T13 construct: also called mFcγRI
T13 sequence (looked up): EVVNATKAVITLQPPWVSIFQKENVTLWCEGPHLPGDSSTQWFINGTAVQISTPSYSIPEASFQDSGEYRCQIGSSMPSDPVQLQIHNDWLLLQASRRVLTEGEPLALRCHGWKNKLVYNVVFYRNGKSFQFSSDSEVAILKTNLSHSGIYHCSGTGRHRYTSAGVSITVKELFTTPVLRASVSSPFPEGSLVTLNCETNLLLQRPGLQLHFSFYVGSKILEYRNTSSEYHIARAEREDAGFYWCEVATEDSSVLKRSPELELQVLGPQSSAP

[18] = molecular target: T14, mouse FcγRIV (mouse, UniProt A0A0B4J1G0 21-203); test: SPR (Biacore)
T14 construct: also called mFcγRIV; not shown: purification tag of the soluble receptor (probably a His tag)
T14 sequence: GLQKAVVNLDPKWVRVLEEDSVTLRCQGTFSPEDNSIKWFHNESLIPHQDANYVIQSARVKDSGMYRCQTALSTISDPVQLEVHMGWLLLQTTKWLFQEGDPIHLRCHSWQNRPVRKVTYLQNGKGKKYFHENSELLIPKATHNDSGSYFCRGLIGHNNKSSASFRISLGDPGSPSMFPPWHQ

B1: IL6R-BP478/IL6R-L (antibody)
heavy: QVQLQESGPGLVKPSETLSLTCAVSGHSISHDHAWSWVRQPPGEGLEWIGFISYSGITNYNPSLQGRVTISRDNSKNTLYLQMNSLRAEDTAVYYCARSLARTTAMDYWGEGTLVTVSSASTKGPSVFPLAPCSRSTSESTAALGCLVKDYFPEPVTVSWNSGALTSGVHTFPAVLQSSGLYSLSSVVTVPSSSLGTKTYTCNVDHKPSNTKVDKRVESKYGPPCPPCPAPDLLGDDSVFLFPPKPKDTLMISRTPEVTCVVVDVSDEDGEVKFNWYVDGVEVHNAKTKPREEQDNSTYRVVSVLTVLHQDWLNGKEYKCKVSNKALPRPIEKTISKAKGQPREPQVYTLPPSRDELTKNQVSLTCLVKGFYPSDIAVEWESNGQPENNYKTTPPVLDSDGSFFLYSKLTVDKSRWQQGNVFSCSVMHEALHNHYTQESLSLSP
light: not shown
notes: copies: 2 + 2
[1]
  KD(IIaR)/KD(IIb): 28
[2]
  KD(IIaR) of parent polypeptide/KD(IIaR) of altered polypeptide: 2
[3]
  KD(IIb) of parent polypeptide/KD(IIb) of altered polypeptide: 161
[4]
  Kd: 7.7 nM
[5]
  Kd: 540 nM
[6]
  Kd: 6700 nM
[7]
  Kd: 19 nM
[8]
  Kd: 35000 nM

B2: IL6R-BP478/IL6R-L (antibody)
heavy: QVQLQESGPGLVKPSETLSLTCAVSGHSISHDHAWSWVRQPPGEGLEWIGFISYSGITNYNPSLQGRVTISRDNSKNTLYLQMNSLRAEDTAVYYCARSLARTTAMDYWGEGTLVTVSSASTKGPSVFPLAPCSRSTSESTAALGCLVKDYFPEPVTVSWNSGALTSGVHTFPAVLQSSGLYSLSSVVTVPSSSLGTKTYTCNVDHKPSNTKVDKRVESKYGPPCPPCPAPDLLGDDSVFLFPPKPKDTLMISRTPEVTCVVVDVSDEDGEVKFNWYVDGVEVHNAKTKPREEQDNSTYRVVSVLTVLHQDWLNGKEYKCKVSNKALPRPIEKTISKAKGQPREPQVYTLPPSRDELTKNQVSLTCLVKGFYPSDIAVEWESNGQPENNYKTTPPVLDSDGSFFLYSKLTVDKSRWQQGNVFSCSVMHEALHNHYTQESLSLSP
light: not shown
notes: copies: 2 + 2
[9]
  fold binding relative to IL6R-BP230/IL6R-L: 1.1 times
[10]
  fold binding relative to IL6R-BP230/IL6R-L: 0.9 times

B3: IL6R-BP253/IL6R-L (antibody, human IgG1, kappa, name in EU numbering)
heavy: QVQLQESGPGLVKPSETLSLTCAVSGHSISHDHAWSWVRQPPGEGLEWIGFISYSGITNYNPSLQGRVTISRDNSKNTLYLQMNSLRAEDTAVYYCARSLARTTAMDYWGEGTLVTVSSASTKGPSVFPLAPSSKSTSGGTAALGCLVKDYFPEPVTVSWNSGALTSGVHTFPAVLQSSGLYSLSSVVTVPSSSLGTQTYICNVNHKPSNTKVDKKVEPKSCDKTHTCPPCPAPELLGGPSVFLFPPKPKDTLMISRTPEVTCVVVDVEHEDPEVKFNWYVDGVEVHNAKTKPREEQYNSTYRVVSVLTVLHQDWLNGKEYKCKVSNKAFPAPIEKTISKAKGQPREPQVYTLPPSRDELTKNQVSLTCLVKGFYPSDIAVEWESNGQPENNYKTTPPVLDSDGSFFLYSKLTVDKSRWQQGNVFSCSVMHEALHNHYTQESLSLSP
light: not shown
notes: comparison control with existing alterations; copies: 2 + 2
[11]
  Kd: 0.0067 nM
[12]
  Kd: 2.1 nM
[13]
  Kd: 11 nM
[14]
  Kd: 3600 nM

B4: F414 (antibody, human IgG1, kappa)
heavy: QVQLQESGPGLVKPSETLSLTCAVSGHSISHDHAWSWVRQPPGEGLEWIGFISYSGITNYNPSLQGRVTISRDNSKNTLYLQMNSLRAEDTAVYYCARSLARTTAMDYWGEGTLVTVSSASTKGPSVFPLAPSSKSTSGGTAALGCLVKDYFPEPVTVSWNSGALTSGVHTFPAVLQSSGLYSLSSVVTVPSSSLGTQTYICNVNHKPSNTKVDKKVEPKSCDKTHTCPPCPAPELLGGPSVFLFPPKPKDTLMISRTVEVTCVVVDVSHEDPEVKFNWYVDGVEVHNAKTKPREEQYNSTYRVVSVLSVLHQDWLNGKEYKCKVSNKALPAPIEKTISKAKGQPREPQVYTLPPSRDELTKNQVSLTCLVKGFYPSDIAVEWESNGQPENNYKTTPPVLDSDGSFFLYSKLTVDKSRWQQGNVFSCSVLHEALHYHYTQKSLSLSP
light: not shown
notes: copies: 2 + 2
[15]
  Kd: 110 nM

B5: F554 (antibody, human IgG1, kappa)
heavy: QVQLQESGPGLVKPSETLSLTCAVSGHSISHDHAWSWVRQPPGEGLEWIGFISYSGITNYNPSLQGRVTISRDNSKNTLYLQMNSLRAEDTAVYYCARSLARTTAMDYWGEGTLVTVSSASTKGPSVFPLAPSSKSTSGGTAALGCLVKDYFPEPVTVSWNSGALTSGVHTFPAVLQSSGLYSLSSVVTVPSSSLGTQTYICNVNHKPSNTKVDKKVEPKSCDKTHTCPPCPAPELLGGPKVFLFPPKPKDTLYITRTPEVTCVVVDVSHEDPEVKFNWYVDGVEVHNAKTKPREEQYNSTYRVVSVLTPLHQDWLNGKEYKCKVSNKALPAPIEKTISKAKGQPREPQVYTLPPSRDELTKNQVSLTCLVKGFYPSDIAVEWESNGQPENNYKTTPPVLDSDGSFFLYSKLTVDKSRWQQGNVFSCSVMHEALHYHYTQKSLSLSP
light: not shown
notes: copies: 2 + 2
[16]
  Kd: 28 nM

B6: VH3/L (WT)-mIgG1 (antibody)
heavy: QVQLQESGPGLVKPSETLSLTCAVSGHSISHDHAWSWVRQPPGEGLEWIGFISYSGITNYNPSLQGRVTISRDNSKNTLYLQMNSLRAEDTAVYYCARSLARTTAMDYWGEGTLVTVSSAKTTPPSVYPLAPGSAAQTNSMVTLGCLVKGYFPEPVTVTWNSGSLSSGVHTFPAVLQSDLYTLSSSVTVPSSTWPSETVTCNVAHPASSTKVDKKIVPRDCGCKPCICTVPEVSSVFIFPPKPKDVLTITLTPKVTCVVVDISKDDPEVQFSWFVDDVEVHTAQTQPREEQFNSTFRSVSELPIMHQDWLNGKEFKCRVNSAAFPAPIEKTISKTKGRPKAPQVYTIPPPKEQMAKDKVSLTCMITDFFPEDITVEWQWNGQPAENYKNTQPIMDTDGSYFVYSKLNVQKSNWEAGNTFTCSVLHEGLHNHHTEKSLSHSPGK
light: not shown
notes: copies: 2 + 2
[17]
  binding result: no binding
[18]
  binding result: no binding
